Laboratory results from article PMC8395317, “The Simple Method of Preparation of Highly Carboxylated Bacterial Cellulose with Ni- and Mg-Ferrite-Based Versatile Magnetic Carrier for Enzyme Immobilization” (International Journal of Molecular Sciences, 2021).

Substrate: CCCC(=O)Oc1ccc([N+](=O)[O-])cc1
Test: purified protein
Assay type: biochemical, Moesziomyces antarcticus
Conditions: free enzyme, 0.1 to 1.2 mmol/L pNPB, 50 mmol/L phosphate pH 7.0, 0.004% Triton X-100, 30 °C

B1: lipase B from Candida antarctica (Lipozyme CALB-L) (Moesziomyces antarcticus) (protein)
chain: LPSGSDPAFSQPKSVLDAGLTCQGASPSSVSKPILLVPGTGTTGPQSFDSNWIPLSTQLGYTPCWISPPPFMLNDTQVNTEYMVNAITALYAGSGNNKLPVLTWSQGGLVAQWGLTFFPSIRSKVDRLMAFAPDYKGTVLAGPLDALAVSAPSVWQQTTGSALTTALRNAGGLTQIVPTTNLYSATDEIVQPQVSNSPLDSSYLFNGKNVQAQAVCGPLFVIDHAGSLTSQFSYVVGRSALRSTTGQARSADYGITDCNPLPANDLTPEQKVAAAALLAPAAAAIVAGPKQNCEPDLMPYARPFAVGKRTCSGIVTP
notes: commercial recombinant enzyme (Lipozyme CALB-L, Sigma-Aldrich), used without further purification; free form
For B1, the Km was 160 ± 10 µM.
